# From IntAct's records for PubMed 17215868
# B1: Vacuolar protein-sorting-associated protein 36 (Saccharomyces cerevisiae), Q06696 (parent)
# chain: MEYWHYVETTSSGQPLLREGEKDIFIDQSVGLYHGKSKILQRQRGRIFLTSQRIIYIDDAKPTQNSLGLELDDLAYVNYSSGFLTRSPRLILFFKDPSSKDELGKSAETASADVVSTWVCPICMVSNETQGEFTKDTLPTPICINCGVPADYELTKSSINCSNAIDPNANPQNQFGVNSENICPACTFANHPQIGNCEICGHRLPNASKVRSKLNRLNFHDSRVHIELEKNSLARNKSSHSALSSSSSTGSSTEFVQLSFRKSDGVLFSQATERALENILTEKNKHIFNQNVVSVNGVDMRKGASSHEYNNEVPFIETKLSRIGISSLEKSRENQLLNNDILFNNALTDLNKLMSLATSIERLYKNSNITMKTKTLNLQDESTVNEPKTRRPLLILDREKFLNKELFLDEIAREIYEFTLSEFKDLNSDTNYMIITLVDLYAMYNKSMRIGTGLISPMEMREACERFEHLGLNELKLVKVNKRILCVTSEKFDVVKEKLVDLIGDNPGSDLLRLTQILSSNNSKSNWTLGILMEVLQNCVDEGDLLIDKQLSGIYYYKNSYWPSHI
# partner: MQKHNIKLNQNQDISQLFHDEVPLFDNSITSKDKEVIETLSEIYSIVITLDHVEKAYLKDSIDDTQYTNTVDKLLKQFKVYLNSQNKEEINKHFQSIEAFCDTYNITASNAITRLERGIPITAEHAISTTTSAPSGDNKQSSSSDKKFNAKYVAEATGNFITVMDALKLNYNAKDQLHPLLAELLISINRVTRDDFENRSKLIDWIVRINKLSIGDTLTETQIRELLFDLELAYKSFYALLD
# Variants of: B1
# Settings: with vps28_yeast VPS28, Q02767
row,effect of a mutation on the interaction,Variant
1,disrupting interaction,MEYWHYVETTSSGQPLLREGEKDIFIDQSVGLYHGKSKILQRQRGRIFLTSQRIIYIDDAKPTQNSLGLELDDLAYVNYSSGFLTRSPRLILFFKDPSSKDELGKSAETASADVVSTWVCPICMVSNETQGEFTKDTLPTPICINCGDPARYELTKSSINCSNAIDPNANPQNQFGVNSENICPACTFANHPQIGNCEICGHRLPNASKVRSKLNRLNFHDSRVHIELEKNSLARNKSSHSALSSSSSTGSSTEFVQLSFRKSDGVLFSQATERALENILTEKNKHIFNQNVVSVNGVDMRKGASSHEYNNEVPFIETKLSRIGISSLEKSRENQLLNNDILFNNALTDLNKLMSLATSIERLYKNSNITMKTKTLNLQDESTVNEPKTRRPLLILDREKFLNKELFLDEIAREIYEFTLSEFKDLNSDTNYMIITLVDLYAMYNKSMRIGTGLISPMEMREACERFEHLGLNELKLVKVNKRILCVTSEKFDVVKEKLVDLIGDNPGSDLLRLTQILSSNNSKSNWTLGILMEVLQNCVDEGDLLIDKQLSGIYYYKNSYWPSHI [V148D;D151R]

# Variants of: B1
# Settings: with vps28_yeast VPS28, Q02767
# Remark: another data set of the same source
row,effect of a mutation on the interaction,Variant
1,disrupting interaction,MEYWHYVETTSSGQPLLREGEKDIFIDQSVGLYHGKSKILQRQRGRIFLTSQRIIYIDDAKPTQNSLGLELDDLAYVNYSSGFLTRSPRLILFFKDPSSKDELGKSAETASADVVSTWVCPDCMVSNETQGEFTKDTLPTPICINCGVPADYELTKSSINCSNAIDPNANPQNQFGVNSENICPACTFANHPQIGNCEICGHRLPNASKVRSKLNRLNFHDSRVHIELEKNSLARNKSSHSALSSSSSTGSSTEFVQLSFRKSDGVLFSQATERALENILTEKNKHIFNQNVVSVNGVDMRKGASSHEYNNEVPFIETKLSRIGISSLEKSRENQLLNNDILFNNALTDLNKLMSLATSIERLYKNSNITMKTKTLNLQDESTVNEPKTRRPLLILDREKFLNKELFLDEIAREIYEFTLSEFKDLNSDTNYMIITLVDLYAMYNKSMRIGTGLISPMEMREACERFEHLGLNELKLVKVNKRILCVTSEKFDVVKEKLVDLIGDNPGSDLLRLTQILSSNNSKSNWTLGILMEVLQNCVDEGDLLIDKQLSGIYYYKNSYWPSHI [I122D]

# Variants of: B1
# Settings: with vps28_yeast VPS28, Q02767
# Remark: another data set of the same source
row,effect of a mutation on the interaction,Variant
1,disrupting interaction,MEYWHYVETTSSGQPLLREGEKDIFIDQSVGLYHGKSKILQRQRGRIFLTSQRIIYIDDAKPTQNSLGLELDDLAYVNYSSGFLTRSPRLILFFKDPSSKDELGKSAETASADVVSTWVCPICMVSNETQGEFTKDTLPTPICINCGVPARYERTKSSINCSNAIDPNANPQNQFGVNSENICPACTFANHPQIGNCEICGHRLPNASKVRSKLNRLNFHDSRVHIELEKNSLARNKSSHSALSSSSSTGSSTEFVQLSFRKSDGVLFSQATERALENILTEKNKHIFNQNVVSVNGVDMRKGASSHEYNNEVPFIETKLSRIGISSLEKSRENQLLNNDILFNNALTDLNKLMSLATSIERLYKNSNITMKTKTLNLQDESTVNEPKTRRPLLILDREKFLNKELFLDEIAREIYEFTLSEFKDLNSDTNYMIITLVDLYAMYNKSMRIGTGLISPMEMREACERFEHLGLNELKLVKVNKRILCVTSEKFDVVKEKLVDLIGDNPGSDLLRLTQILSSNNSKSNWTLGILMEVLQNCVDEGDLLIDKQLSGIYYYKNSYWPSHI [D151R;L154R]

# Variants of: B1
# Settings: with vps28_yeast VPS28, Q02767
# Remark: another data set of the same source
row,effect of a mutation on the interaction,Variant
1,disrupting interaction,MEYWHYVETTSSGQPLLREGEKDIFIDQSVGLYHGKSKILQRQRGRIFLTSQRIIYIDDAKPTQNSLGLELDDLAYVNYSSGFLTRSPRLILFFKDPSSKDELGKSAETASADVVSTWVCPDCMVSNETQGEFTKDTLPTPICINCGDPADYELTKSSINCSNAIDPNANPQNQFGVNSENICPACTFANHPQIGNCEICGHRLPNASKVRSKLNRLNFHDSRVHIELEKNSLARNKSSHSALSSSSSTGSSTEFVQLSFRKSDGVLFSQATERALENILTEKNKHIFNQNVVSVNGVDMRKGASSHEYNNEVPFIETKLSRIGISSLEKSRENQLLNNDILFNNALTDLNKLMSLATSIERLYKNSNITMKTKTLNLQDESTVNEPKTRRPLLILDREKFLNKELFLDEIAREIYEFTLSEFKDLNSDTNYMIITLVDLYAMYNKSMRIGTGLISPMEMREACERFEHLGLNELKLVKVNKRILCVTSEKFDVVKEKLVDLIGDNPGSDLLRLTQILSSNNSKSNWTLGILMEVLQNCVDEGDLLIDKQLSGIYYYKNSYWPSHI [I122D;V148D]
